# Experimental data taken from patent US20050287597.
# Biological target: synthetic Tat (72 amino acids) carrying an N-terminal biotin label and an acetyl group at position 50
row,Protein,in vitro Tat deacetylation (western blot with antibodies specific for acetylated lysine 50 in Tat)
1,FLAG-tagged human SIRT3 (C-terminal FLAG tag) (protein) MAFWGWRAAAALRLWGRVVERVEAGGGVGPFQACGCRLVLGGRDDVSAGLRGSHGARGEPLDPARPLQRPPRPEVPRAFRRQPRAAAPSFFFSSIKGGRRSISFSVGASSVVGSGGSSDKGKLSLQDVAELIRARACQRVVVMVGAGISTPSGIPDFRSPGSGLYSNLQQYDLPYPEAIFELPFFFHNPKPFFTLAKELYPGNYKPNVTHYFLRLLHDKGLLLRLYTQNIDGLERVSGIPASKLVEAHGTFASATCTVCQRPFPGEDIRADVMADRVPRCPVCTGVVKPDIVFFGEPLPQRFLLHVVDFPMADLLLILGTSLEVEPFASLTEAVRSSVPRLLINRDLVGPLAWHPRSRDVAQLGDVVHGVESLVELLGWTEEMRDLVQRETGKLDGPDK,resulted in deacetylation of Tat lysine 50
2,FLAG-tagged human SIRT2 (C-terminal FLAG tag) (protein) MAEPDPSHPLETQAGKVQEAQDSDSDSEGGAAGGEADMDFLRNLFSQTLSLGSQKERLLDELTLEGVARYMQSERCRRVICLVGAGISTSAGIPDFRSPSTGLYDNLEKYHLPYPEAIFEISYFKKHPEPFFALAKELYPGQFKPTICHYFMRLLKDKGLLLRCYTQNIDTLERIAGLEQEDLVEAHGTFYTSHCVSASCRHEYPLSWMKEKIFSEVTPKCEDCQSLVKPDIVFFGESLPARFFSCMQSDFLKVDLLLVMGTSLQVQPFASLISKAPLSTPRLLINKEKAGQSDPFLGMIMGLGGGMDFDSKKAYRDVAWLGECDQGCLALAELLGWKKELEDLVRREHASIDAQSGAGVPNPSTSASPKKSPPPAKDEARTTEREKPQ,resulted in deacetylation of Tat lysine 50
3,FLAG-tagged human SIRT1 (C-terminal FLAG tag) (protein) MADEAALALQPGGSPSAAGADREAASSPAGEPLRKRPRRDGPGLERSPGEPGGAAPEREVPAAARGCPGAAAAALWREAEAEAAAAGGEQEAQATAAAGEGDNGPGLQGPSREPPLADNLYDEDDDDEGEEEEEAAAAAIGYRDNLLFGDEIITNGFHSCESDEEDRASHASSSDWTPRPRIGPYTFVQQHLMIGTDPRTILKDLLPETIPPPELDDMTLWQIVINILSEPPKRKKRKDINTIEDAVKLLQECKKIIVLTGAGVSVSCGIPDFRSRDGIYARLAVDFPDLPDPQAMFDIEYFRKDPRPFFKFAKEIYPGQFQPSLCHKFIALSDKEGKLLRNYTQNIDTLEQVAGIQRIIQCHGSFATASCLICKYKVDCEAVRGDIFNQVVPRCPRCPADEPLAIMKPEIVFFGENLPEQFHRAMKYDKDEVDLLIVIGSSLKVRPVALIPSSIPHEVPQILINREPLPHLHFDVELLGDCDVIINELCHRLGGEYAKLCCNPVKLSEITEKPPRTQKELAYLSELPPTPLHVSEDSSSPERTSPPDSSVIVTLLDQAAKSNDDLDVSESKGCMEEKPQEVQTSRNVESIAEQMENPDLKNVGSSTGEKNERTSVAGTVRKCWPNRVAKEQISRRLDGNQYLFLPPNRYIFHGAEVYSDSEDDVLSSSSCGSNSDSGTCQSPSLEEPMEDESEIEEFYNGLEDEPDVPERAGGAGFGTDGDDQEAINEAISVKQEVTDMNYPSNKS,resulted in deacetylation of Tat lysine 50
